# In patent publication US20110263454A1, “Methods of Identifying Functional Characteristics of Promoters, Transcription Modifying Proteins and Transcription Modulating Agents” (Salk Institute for Biological Studies, priority 2008, published 2011):
# B1: TR2: Testicular Orphan Nuclear Receptor 2 (NR2C1), cDNA driver (protein, UniProt P13056 1-603, looked up)
# Nuclear receptor subfamily 2 …: MATIEEIAHQIIEQQMGEIVTEQQTGQKIQIVTALDHNTQGKQFILTNHDGSTPSKVILARQDSTPGKVFLTTPDAAGVNQLFFTTPDLSAQHLQLLTDNSPDQGPNKVFDLCVVCGDKASGRHYGAVTCEGCKGFFKRSIRKNLVYSCRGSKDCIINKHHRNRCQYCRLQRCIAFGMKQDSVQCERKPIEVSREKSSNCAASTEKIYIRKDLRSPLTATPTFVTDSESTRSTGLLDSGMFMNIHPSGVKTESAVLMTSDKAESCQGDLSTLANVVTSLANLGKTKDLSQNSNEMSMIESLSNDDTSLCEFQEMQTNGDVSRAFDTLAKALNPGESTACQSSVAGMEGSVHLITGDSSINYTEKEGPLLSDSHVAFRLTMPSPMPEYLNVHYIGESASRLLFLSMHWALSIPSFQALGQENSISLVKAYWNELFTLGLAQCWQVMNVATILATFVNCLHNSLQQDKMSTERRKLLMEHIFKLQEFCNSMVKLCIDGYEYAYLKAIVLFSPDHPSLENMEQIEKFQEKAYVEFQDYITKTYPDDTYRLSRLLLRLPALRLMNATITEELFFKGLIGNIRIDSVIPHILKMEPADYNSQIIGHSI
# B2: RXRb: Retinoic X Receptor β (NR2B2), cDNA driver (protein, UniProt P28702 1-533, looked up)
# Retinoic acid receptor …: MSWAARPPFLPQRHAAGQCGPVGVRKEMHCGVASRWRRRRPWLDPAAAAAAAVAGGEQQTPEPEPGEAGRDGMGDSGRDSRSPDSSSPNPLPQGVPPPSPPGPPLPPSTAPSLGGSGAPPPPPMPPPPLGSPFPVISSSMGSPGLPPPAPPGFSGPVSSPQINSTVSLPGGGSGPPEDVKPPVLGVRGLHCPPPPGGPGAGKRLCAICGDRSSGKHYGVYSCEGCKGFFKRTIRKDLTYSCRDNKDCTVDKRQRNRCQYCRYQKCLATGMKREAVQEERQRGKDKDGDGEGAGGAPEEMPVDRILEAELAVEQKSDQGVEGPGGTGGSGSSPNDPVTNICQAADKQLFTLVEWAKRIPHFSSLPLDDQVILLRAGWNELLIASFSHRSIDVRDGILLATGLHVHRNSAHSAGVGAIFDRVLTELVSKMRDMRMDKTELGCLRAIILFNPDAKGLSNPSEVEVLREKVYASLETYCKQKYPEQQGRFAKLLLRLPALRSIGLKCLEHLFFFKLIGDTPIDTFLMEMLEAPHQLA
# B3: RORb: RAR-related Orphan Receptor β (NR1F2), cDNA driver (protein, UniProt Q92753 1-470, looked up)
# Nuclear receptor ROR-beta: MCENQLKTKADATAQIEVIPCKICGDKSSGIHYGVITCEGCKGFFRRSQQNNASYSCPRQRNCLIDRTNRNRCQHCRLQKCLALGMSRDAVKFGRMSKKQRDSLYAEVQKHQQRLQEQRQQQSGEAEALARVYSSSISNGLSNLNNETSGTYANGHVIDLPKSEGYYNVDSGQPSPDQSGLDMTGIKQIKQEPIYDLTSVPNLFTYSSFNNGQLAPGITMTEIDRIAQNIIKSHLETCQYTMEELHQLAWQTHTYEEIKAYQSKSREALWQQCAIQITHAIQYVVEFAKRITGFMELCQNDQILLLKSGCLEVVLVRMCRAFNPLNNTVLFEGKYGGMQMFKALGSDDLVNEAFDFAKNLCSLQLTEEEIALFSSAVLISPDRAWLIEPRKVQKLQEKIYFALQHVIQKNHLDDETLAKLIAKIPTITAVCNLHGEKLQVFKQSHPEIVNTLFPPLYKELFNPDCATGCK
# B4: RXRg: Retinoic X Receptor γ (NR2B3), cDNA driver (protein, UniProt P48443 1-463, looked up)
# Retinoic acid receptor …: MYGNYSHFMKFPAGYGGSPGHTGSTSMSPSAALSTGKPMDSHPSYTDTPVSAPRTLSAVGTPLNALGSPYRVITSAMGPPSGALAAPPGINLVAPPSSQLNVVNSVSSSEDIKPLPGLPGIGNMNYPSTSPGSLVKHICAICGDRSSGKHYGVYSCEGCKGFFKRTIRKDLIYTCRDNKDCLIDKRQRNRCQYCRYQKCLVMGMKREAVQEERQRSRERAESEAECATSGHEDMPVERILEAELAVEPKTESYGDMNMENSTNDPVTNICHAADKQLFTLVEWAKRIPHFSDLTLEDQVILLRAGWNELLIASFSHRSVSVQDGILLATGLHVHRSSAHSAGVGSIFDRVLTELVSKMKDMQMDKSELGCLRAIVLFNPDAKGLSNPSEVETLREKVYATLEAYTKQKYPEQPGRFAKLLLRLPALRSIGLKCLEHLFFFKLIGDTPIDTFLMEMLETPLQIT
# B5: HNF4g: Hepatocyte Nuclear Factor γ (NR2A2), cDNA driver (protein, UniProt Q14541 1-408, looked up)
# Hepatocyte nuclear factor …: MNTTDNGVNCLCAICGDRATGKHYGASSCDGCKGFFRRSIRKSHVYSCRFSRQCVVDKDKRNQCRYCRLRKCFRAGMKKEAVQNERDRISTRRSTFDGSNIPSINTLAQAEVRSRQISVSSPGSSTDINVKKIASIGDVCESMKQQLLVLVEWAKYIPAFCELPLDDQVALLRAHAGEHLLLGATKRSMMYKDILLLGNNYVIHRNSCEVEISRVANRVLDELVRPFQEIQIDDNEYACLKAIVFFDPDAKGLSDPVKIKNMRFQVQIGLEDYINDRQYDSRGRFGELLLLLPTLQSITWQMIEQIQFVKLFGMVKIDNLLQEMLLGGASNDGSHLHHPMHPHLSQDPLTGQTILLGPMSTLVHADQISTPETPLPSPPQGSGQEQYKIAANQASVISHQHLSKQKQL
# Key:
# hPPARg1 promoter = experiment: NHR-promoter luciferase screen, hPPARg1 promoter; format: cell-based, human; settings: for Luc. act., normalized to lacZ / Normalized Luc. act., normalized to control: PPARG1 promoter, hormone receptor with or without its ligand; for Normalized Luc. act., normalized to control: relative to control; for Results of assays of transcription factor (+/- ligand) with hPPARg1: Table 6d, luciferase activity relative to control (control = 1.00)
# Summary of the method: (§1)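 CV-1 cells were co-transfected with 50 ng NHR (homodimer or NHR/RXR heterodimer), 100 ng promoter-luciferase construct and 50 ng LacZ. Luciferase was normalized to LacZ and to a no-NHR/no-ligand control.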
# hG6PD promoter = experiment: NHR-promoter luciferase screen, hG6PD promoter; format: cell-based, human; settings: for Luc. act., normalized to lacZ / Normalized Luc. act., normalized to control: G6PD promoter reporter, co-transfected HR, without or with its ligand; for Normalized Luc. act., normalized to control: relative to control; for luciferase activity normalized to lacZ activity and to a control, hG6PD: hG6PD promoter-luciferase, CV-1 cells, NHR +/- ligand, control = 1.00
# Summary of the method: as §1
# hIRF7 promoter = experiment: NHR-promoter luciferase screen, hIRF7 promoter; format: cell-based, human; settings: for Normalized Luc. act., normalized to control / Luc. act., normalized to lacZ: IRF7 promoter reporter; for Normalized Luc. act., normalized to control: HR without or with its ligand, relative to control; for Luc. act., normalized to lacZ: hormone receptor (HR) without or with its ligand; for hIRF7 promoter reporter activity: transcription factor +/- ligand, control = 1.00
# Summary of the method: as §1
# mPgc1b promoter = experiment: NHR-promoter luciferase screen, mPgc1b promoter; format: cell-based, mouse; settings: for Luc. act., normalized to lacZ / Normalized Luc. act., normalized to control: PGC1b promoter reporter, co-transfected HR, without or with its ligand; for Normalized Luc. act., normalized to control: relative to control; for luciferase activity normalized to lacZ activity and to a control, mPgc1b: mPgc1b promoter-luciferase, CV-1 cells, NHR +/- ligand, control = 1.00
# Summary of the method: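 Luciferase reporter read-out after co-expression in CV-1 cells of V5H6-tagged receptor (alone or with RXR), the promoter construct and LacZ. Values are luciferase/LacZ relative to a control lacking NHR or ligand; orphan receptors tested ligand-free.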
# mAdiponectin promoter = experiment: NHR-promoter luciferase screen, mAdiponectin promoter; format: cell-based, mouse; settings: for Luc. act., normalized to lacZ / Normalized Luc. act., normalized to control: Adiponectin, HR component without or with its ligand; for mAdiponectin promoter reporter activity: transcription factor +/- ligand, control = 1.00
# Summary of the method: as §1
# hPPARg2 promoter = experiment: NHR-promoter luciferase screen, hPPARg2 promoter; format: cell-based, human; settings: for Luc. act., normalized to lacZ / Normalized Luc. act., normalized to control: PPARG2 promoter, hormone receptor with or without its ligand; for Normalized Luc. act., normalized to control: relative to control; for Results of assays of transcription factor (+/- ligand) with hPPARg2: Table 6d, luciferase activity relative to control (control = 1.00)
# Summary of the method: as §1
Molecule,"Luc. act., normalized to lacZ (hPPARg1 promoter)","Normalized Luc. act., normalized to control (hPPARg1 promoter)",Results of assays of transcription factor (+/- ligand) with hPPARg1 (hPPARg1 promoter),"Luc. act., normalized to lacZ (hG6PD promoter)","Normalized Luc. act., normalized to control (hG6PD promoter)","luciferase activity normalized to lacZ activity and to a control, hG6PD (hG6PD promoter)","Normalized Luc. act., normalized to control (hIRF7 promoter)","Luc. act., normalized to lacZ (hIRF7 promoter)",hIRF7 promoter reporter activity (hIRF7 promoter),"Luc. act., normalized to lacZ (mPgc1b promoter)","Normalized Luc. act., normalized to control (mPgc1b promoter)","luciferase activity normalized to lacZ activity and to a control, mPgc1b (mPgc1b promoter)","Luc. act., normalized to lacZ (mAdiponectin promoter)","Normalized Luc. act., normalized to control (mAdiponectin promoter)",mAdiponectin promoter reporter activity (mAdiponectin promoter),"Luc. act., normalized to lacZ (hPPARg2 promoter)","Normalized Luc. act., normalized to control (hPPARg2 promoter)",Results of assays of transcription factor (+/- ligand) with hPPARg2 (hPPARg2 promoter)
B1,45.5,0.7,0.66,45.5,1.2,1.22,1.0,25.8,0.98,9.8,0.8,0.83,37.5,0.6,0.60,1.9,1.0,0.95
B2,23.1,0.3,0.34,23.1,0.6,0.62,0.3,8.9,0.34,11.7,1.0,0.99,71.8,1.1,1.14,1.5,0.8,0.75
B3,51.1,0.7,0.74,51.1,1.4,1.37,1.6,40.9,1.55,10.7,0.9,0.90,82.7,1.3,1.32,1.8,0.9,0.89
B4,43.7,0.6,0.63,43.7,1.2,1.17,1.0,27.4,1.04,9.0,0.8,0.76,69.4,1.1,1.10,1.5,0.7,0.74
B5,42.1,0.6,0.61,42.1,1.1,1.13,1.2,31.7,1.20,6.8,0.6,0.57,45.4,0.7,0.72,1.5,0.8,0.76
